Experimental data from PMC8924993.

Biological target: integrin αIIbβ3 (human (endogenous in HEL)) (UniProt P08514)
Assay: proximity ligation

Sequence of talin (Q9Y490 whole entry): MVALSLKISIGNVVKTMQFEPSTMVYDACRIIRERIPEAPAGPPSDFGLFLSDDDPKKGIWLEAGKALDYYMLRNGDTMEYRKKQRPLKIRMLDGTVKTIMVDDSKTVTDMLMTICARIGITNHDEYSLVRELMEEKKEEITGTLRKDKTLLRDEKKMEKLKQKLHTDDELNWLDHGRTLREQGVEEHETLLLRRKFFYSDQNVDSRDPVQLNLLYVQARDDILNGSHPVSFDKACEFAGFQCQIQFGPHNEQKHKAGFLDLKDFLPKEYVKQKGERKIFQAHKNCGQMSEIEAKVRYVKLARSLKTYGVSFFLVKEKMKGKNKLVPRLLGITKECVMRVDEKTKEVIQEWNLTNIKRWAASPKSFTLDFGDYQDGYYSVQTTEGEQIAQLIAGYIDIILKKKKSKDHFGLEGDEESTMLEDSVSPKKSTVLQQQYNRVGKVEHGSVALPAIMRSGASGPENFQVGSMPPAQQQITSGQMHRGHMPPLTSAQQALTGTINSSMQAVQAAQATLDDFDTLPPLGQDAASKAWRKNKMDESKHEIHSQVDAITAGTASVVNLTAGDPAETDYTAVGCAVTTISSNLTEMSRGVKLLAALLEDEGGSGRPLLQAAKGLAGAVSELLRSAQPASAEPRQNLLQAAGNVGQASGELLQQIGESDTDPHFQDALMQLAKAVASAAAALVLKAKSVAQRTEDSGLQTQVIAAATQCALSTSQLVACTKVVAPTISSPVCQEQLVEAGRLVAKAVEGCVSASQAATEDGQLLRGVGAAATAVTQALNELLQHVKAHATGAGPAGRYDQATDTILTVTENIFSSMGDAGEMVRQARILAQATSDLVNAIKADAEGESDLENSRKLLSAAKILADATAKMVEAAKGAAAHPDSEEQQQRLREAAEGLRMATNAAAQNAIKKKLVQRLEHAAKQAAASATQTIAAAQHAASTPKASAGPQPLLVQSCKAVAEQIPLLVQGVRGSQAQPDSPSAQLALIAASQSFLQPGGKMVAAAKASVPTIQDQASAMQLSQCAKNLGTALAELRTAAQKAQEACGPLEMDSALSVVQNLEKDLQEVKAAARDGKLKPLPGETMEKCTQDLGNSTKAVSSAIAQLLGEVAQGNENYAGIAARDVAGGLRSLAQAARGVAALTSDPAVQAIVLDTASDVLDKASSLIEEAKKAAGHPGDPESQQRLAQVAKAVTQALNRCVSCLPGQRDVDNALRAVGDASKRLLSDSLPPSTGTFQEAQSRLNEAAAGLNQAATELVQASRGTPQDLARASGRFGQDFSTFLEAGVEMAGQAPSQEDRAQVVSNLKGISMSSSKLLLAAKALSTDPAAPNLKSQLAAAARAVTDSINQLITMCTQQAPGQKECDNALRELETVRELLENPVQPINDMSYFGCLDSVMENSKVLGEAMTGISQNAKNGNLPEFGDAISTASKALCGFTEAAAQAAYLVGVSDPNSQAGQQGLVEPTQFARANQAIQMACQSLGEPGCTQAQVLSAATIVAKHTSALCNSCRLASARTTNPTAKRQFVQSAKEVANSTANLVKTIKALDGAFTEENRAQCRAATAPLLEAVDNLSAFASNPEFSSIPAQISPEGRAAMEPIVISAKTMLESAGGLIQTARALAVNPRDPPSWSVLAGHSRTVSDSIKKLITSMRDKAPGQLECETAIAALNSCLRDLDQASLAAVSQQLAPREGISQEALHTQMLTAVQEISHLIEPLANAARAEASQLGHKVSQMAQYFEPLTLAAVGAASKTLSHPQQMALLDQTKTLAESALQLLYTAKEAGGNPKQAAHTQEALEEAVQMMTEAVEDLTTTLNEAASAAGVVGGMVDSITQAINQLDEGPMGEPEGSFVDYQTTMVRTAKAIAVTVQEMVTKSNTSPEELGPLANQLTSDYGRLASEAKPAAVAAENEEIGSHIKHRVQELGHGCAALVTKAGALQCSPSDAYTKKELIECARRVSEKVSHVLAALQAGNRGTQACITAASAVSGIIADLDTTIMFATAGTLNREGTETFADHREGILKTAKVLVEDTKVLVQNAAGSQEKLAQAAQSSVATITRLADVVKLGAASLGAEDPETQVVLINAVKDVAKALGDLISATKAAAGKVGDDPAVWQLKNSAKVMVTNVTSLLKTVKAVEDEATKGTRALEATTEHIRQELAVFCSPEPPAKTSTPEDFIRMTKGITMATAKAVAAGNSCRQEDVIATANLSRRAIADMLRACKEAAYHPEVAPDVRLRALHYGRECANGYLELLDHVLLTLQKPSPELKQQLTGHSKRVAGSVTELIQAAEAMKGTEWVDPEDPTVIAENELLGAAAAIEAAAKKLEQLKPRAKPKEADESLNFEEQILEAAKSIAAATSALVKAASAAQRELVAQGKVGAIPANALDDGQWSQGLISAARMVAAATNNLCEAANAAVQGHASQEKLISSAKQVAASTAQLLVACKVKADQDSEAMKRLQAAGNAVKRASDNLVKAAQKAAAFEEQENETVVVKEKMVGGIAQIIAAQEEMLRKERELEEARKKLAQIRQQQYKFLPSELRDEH

Row | PLA dots/cell (with PMA; FLNa-Del1 cells) [dots/cell] | PLA dots/cell (without PMA; FLNa-Del1 cells) [dots/cell] | PLA dots/cell (no PMA; control, FLNa WT and FLNa-Del1 cells) [dots/cell] | PLA dots/cell (with 10 µM ROCK inhibitor Y-27632; FLNa WT cells, Figure 5H) [dots/cell] | PLA dots/cell (with PMA and 10 µM EHop-016; FLNa-Del1 cells) [dots/cell] | PLA dots/cell (with PMA and 10 µM Y-27632; FLNa WT cells) [dots/cell] | PLA dots/cell (with PMA and Y-27632; FLNa-Del1 cells) [dots/cell] | PLA dots/cell (with PMA, without EHop-016; FLNa-Del1 cells) [dots/cell] | PLA dots/cell (with PMA, without Y-27632; FLNa WT cells) [dots/cell] | PLA dots/cell (with PMA, without Y-27632; FLNa-Del1 cells) [dots/cell] | PLA dots/cell (with PMA; FLNa WT cells) [dots/cell] | PLA dots/cell (with PMA; FLNa-Del2 cells) [dots/cell] | PLA dots/cell (with PMA; FLNa-WT cells) [dots/cell] | PLA dots/cell (without ROCK inhibitor; FLNa WT cells, Figure 5H) [dots/cells] | Substance
1 | 7.2 | 17.6 |  |  |  |  |  |  |  |  |  |  |  |  | FLNa-Del1, filamin A mutant lacking the N-terminal actin-binding domain (CH1-CH2) (domain or fragment)
2 | 15 | 4.6 | 5 | 17.7 | 4.4 | 10.8 | 13.2 | 20.4 | 4 | 14.9 | 8.2 | 21.2 | 7.1 | 9.1 | talin (from UniProt Q9Y490 1-2541) (natural protein)
